# Legend:
# [1] = target: T1, Omicron BA.1 SARS-CoV-2 RBD (SARS-CoV-2, Omicron BA.1, Q493R); assay: ELISA; conditions: both partners purified
# T1 construct: also called Omicron BA.1 RBD; BA.1 RBD
# [2] = target: T2, Omicron BA.5 SARS-CoV-2 RBD (SARS-CoV-2, Omicron BA.5 (RBD same as …, strain)); assay: ELISA; conditions: both partners purified
# T2 construct: also called Omicron BA.5 RBD; BA.5 RBD
binder,measurement,setting,value
"BP3D5 (VHH, also called HCAb BP3D5) VHH: EVQLQASGGGFVQPGGSLRLSCAASGRAFRIYTMGWFRQAPGKEREFVSAISAGDGAASYYADSVKGRFTISRDNSKNTVYLQMNSLRAEDTATYYCAQYWQSINPIYWGQGTQVTVSS",Kd,[1],1.12 nM
same,Kd,[2],1.83 nM

# Source: article PMC11793827 (PLOS Pathogens, 2025)
